These results are taken from patent US20120058906A1 (published 2012).

Test [1] addresses T1, rHuman EGF R/Fc Chimera, CF (R&D Systems Cat#344-ER) (human, UniProt P00533 25-645).
T1 construct: Bought reagent; also called epidermal growth factor receptor; Fc part of the bought chimera not given
The test can be described thus: ECL (MSD multi-spot), antigen spotted on plate; Fab 705 nM; blank spot 483.

Test [2] has as its target T2, rHuman Erythropoietin R/Fc Chimera, CF (R&D Systems Cat#963-ER) (human, UniProt P19235 25-250).
T2 construct: Bought reagent; also called EPO R/Fc; Epo R; Fc part of the bought chimera not given
T2 sequence: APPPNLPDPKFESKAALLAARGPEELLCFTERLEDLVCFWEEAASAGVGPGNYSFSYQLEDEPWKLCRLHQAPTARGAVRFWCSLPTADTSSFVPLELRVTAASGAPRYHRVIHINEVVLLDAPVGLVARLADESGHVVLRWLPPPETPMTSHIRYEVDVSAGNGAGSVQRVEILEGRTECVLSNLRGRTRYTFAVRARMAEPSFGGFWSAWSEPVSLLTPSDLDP
Described as above.

In test [3] the target is T3, Recombinant Human DLL4 (R&D Systems Cat#1506-D4/CF) (human, UniProt Q9NR61 27-524).
T3 construct: Bought reagent; also called delta-like protein 4
The description is as above.

In test [4] the target is T4, rHuman IGF-1 sR (IGF-1 sR), CF (R&D Systems Cat#391-GR) (human, UniProt P08069 31-932).
T4 construct: Bought soluble receptor; also called insulin-like growth factor-1 soluble receptor; IGF-R1
Described as above.

Test [5] has as its target T5, rHuman CD44/Fc Chimera, CF (R&D Systems Cat#3660-CD) (human, UniProt P16070 21-220).
T5 construct: Bought reagent; Fc part of the bought chimera not given
The description is as above.

Test [6] addresses T6, rHuman Notch-1/Fc Chimera, CF (R&D Systems Cat#3647-TK) (human, UniProt P46531 19-526).
T6 construct: Bought reagent; Fc part of the bought chimera not given
The test is described as above.

The target in test [7] is T7, rHuman P-Cadherin/Fc Chimera, CF (R&D Systems Cat#861-PC) (human, UniProt P22223 108-654).
T7 construct: Bought reagent; also called CDH3; Fc part of the bought chimera not given
The test is described as above.

Test [8] addresses T8, rHuman HGF R/c-MET/Fc Chimera, CF (R&D Systems Cat#358-MT/CF) (human, UniProt P08581 25-932).
T8 construct: Bought reagent; also called HGF R/Fc; hepatocyte growth factor receptor; Fc part of the bought chimera not given
The test is described as above.

Test [9] has as its target T9, rHuman ErbB2/Fc Chimera, CF (R&D Systems Cat#1129-ER) (human, UniProt P04626 23-652).
T9 construct: Bought reagent; also called HER2/neu; human epidermal growth factor 2 receptor; Fc part of the bought chimera not given
Described as above.

Test [10] concerns the target T10, rHuman Erythropoietin R/Fc Chimera, CF (R&D Systems Cat#963-ER) (human, UniProt P19235 25-250).
T10 construct: Bought Fc chimera; also called EPO R/Fc; erythropoietin receptor; Fc part of the bought chimera not given
T10 sequence: T2 sequence
The test can be described thus: ECL (MSD Multi-Spot) binding, antigen spotted on plate; Fab 500 nM.

Test [11] has as its target T11, rHuman Notch-1/Fc Chimera, CF (R&D Systems Cat#3647-TK) (human, UniProt P46531 19-526).
T11 construct: Bought Fc chimera; Fc part of the bought chimera not given
Described as above.

The target in test [12] is T12, rHuman HGF R/c-MET/Fc Chimera, CF (R&D Systems Cat#358-MT/CF) (human, UniProt P08581 25-932).
T12 construct: Bought Fc chimera; also called HGF R/Fc; hepatocyte growth factor receptor; Fc part of the bought chimera not given
The test is described as above.

The target of test [13] is T13, rHuman EGF R/Fc Chimera, CF (R&D Systems Cat#344-ER) (human, UniProt P00533 25-645).
T13 construct: Bought Fc chimera; also called epidermal growth factor receptor; Fc part of the bought chimera not given
The description is as above.

Test [14] has as its target T14, rHuman P-Cadherin/Fc Chimera, CF (R&D Systems Cat#861-PC) (human, UniProt P22223 108-654).
T14 construct: Bought Fc chimera; Fc part of the bought chimera not given
The test is described as above.

Test [15] addresses T15, Recombinant Human DLL4 (R&D Systems Cat#1506-D4/CF) (human, UniProt Q9NR61 27-524).
T15 construct: Bought recombinant protein; also called delta-like protein 4
The description is as above.

The target of test [16] is T16, rHuman ErbB2/Fc Chimera, CF (R&D Systems Cat#1129-ER) (human, UniProt P04626 23-652).
T16 construct: Bought Fc chimera; also called human epidermal growth factor 2 receptor; HER2/neu; Fc part of the bought chimera not given
The description is as above.

The target in test [17] is T17, rHuman IGF-1 sR, CF (R&D Systems Cat#391-GR) (human, UniProt P08069 31-932).
T17 construct: Bought soluble receptor; also called insulin-like growth factor-1 soluble receptor; IGF-R1
Described as above.

For test [18], the target named is T18, rHuman P-Cadherin/Fc Chimera, CF (R&D Systems Cat#861-PC) (human, UniProt P22223 108-654).
T18 construct: Bought Fc chimera; also called CDH3; not shown: Fc of the bought chimera
As to the kind of experiment: ECL (MSD multi-spot), antigen on plate, Fab 10 nM.

Numbering of substitutions follows the chain as printed.
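Note: blank spot per well as comparator with Hit at signal to blank ratio of 4 or more.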

B1: Fab VH1-46_IGHD3-10*01_IGHJ4*01 & B3_IGKJ1*01 (Fab, V domains shown)
VH: QVQLVQSGAEVKKPGASVKVSCKASGYTFTSYYMHWVRQAPGQGLEWMGIINPSGGSTSYAQKFQGRVTMTRDTSTSTVYMELSSLRSEDTAVYYCAREYYYGSGSYYNDYFDYWGQGTLVTVSS
VL: not shown
notes: also called IGHV1-46*01
Turning to B1, the ECL signal in test [1] worked out at 692; in test [2] it was 4890; in [3], 981; in test [4], 630; in test [5], 693; in [6] it was 958. For the same molecule, the ECL signal was 827 in test [7], 839 in [8] and 671 in [9].

B2: Fab VH1-46_IGHD6-6*01_IGHJ1*01_S102A_S103P_S104F_H111Y & L6_IGKJ1*01 (Fab, V domains shown)
VH: QVQLVQSGAEVKKPGASVKVSCKASGYTFTSYYMHWVRQAPGQGLEWMGIINPSGGSTSYAQKFQGRVTMTRDTSTSTVYMELSSLRSEDTAVYYCAREEYAPFSAEYFQYWGQGTLVTVSS
VL: not shown
notes: Fab made in E. coli; The heavy chain also carries the CH1 with Flag and His tags of Plasmid A, and the light chain the kappa constant region of Plasmid C
Turning to B2, the ECL signal stood at 1210 in test [10]; 644 in [11]; 523 in [12]; 898 in test [13]; 939 in test [14]; 93100 in [15]. The ECL signal was found to be 713 in [16] and 592 in [17].

B3: Fab VH1-46_IGHD6-6*01_IGHJ1*01_S102A_S103P_S104F & L6_IGKJ1*01_S28P (Fab, V domains shown)
VH: B2 VH with Y111H
VL: EIVLTQSPATLSLSPGERATLSCRASQPVSSYLAWYQQKPGQAPRLLIYDASNRATGIPARFSGSGSGTDFTLTISSLEPEDFAVYYCQQRSNWPPWTFGQGTKVEIKR
notes: Fab
On to B3, for which the ECL signal in test [18] worked out at 216 ECL signal.
